Article PMC7160150, “Transcriptional repression of GIF1 by the KIX-PPD-MYC repressor complex controls seed size in Arabidopsis”

B1: probe A (dsDNA)
DNA 1: TAAAGTATGACTCGTCACGTGACCTCCTCTTCTTCGC
DNA 2: GCGAAGAAGAGGAGGTCACGTGACGAGTCATACTTTA
B2: unlabelled probe A (dsDNA)
DNA 1: B1 DNA 1
DNA 2: B1 DNA 2
B3: probe A-m (dsDNA)
DNA 1: TAAAGTATGACTCGTAGCCGTACCTCCTCTTCTTCGC
DNA 2: GCGAAGAAGAGGAGGTACGGCTACGAGTCATACTTTA

What was measured:
MBP-MYC4 [1] = biological target: T1, MBP-MYC4 (Arabidopsis thaliana (Col-0), UniProt O49687 1-589); test: EMSA; EMSA kit (Thermo), room temperature, 20 min; binding buffer not stated (protein extraction buffer: 50 mM HEPES pH 7.5, 150 mM NaCl, 1 mM EGTA, 1% Triton X-100); conditions: protein: recombinant; tags: MBP; chain copies: 2; label: 5'-biotin
T1 sequence (O49687 whole entry): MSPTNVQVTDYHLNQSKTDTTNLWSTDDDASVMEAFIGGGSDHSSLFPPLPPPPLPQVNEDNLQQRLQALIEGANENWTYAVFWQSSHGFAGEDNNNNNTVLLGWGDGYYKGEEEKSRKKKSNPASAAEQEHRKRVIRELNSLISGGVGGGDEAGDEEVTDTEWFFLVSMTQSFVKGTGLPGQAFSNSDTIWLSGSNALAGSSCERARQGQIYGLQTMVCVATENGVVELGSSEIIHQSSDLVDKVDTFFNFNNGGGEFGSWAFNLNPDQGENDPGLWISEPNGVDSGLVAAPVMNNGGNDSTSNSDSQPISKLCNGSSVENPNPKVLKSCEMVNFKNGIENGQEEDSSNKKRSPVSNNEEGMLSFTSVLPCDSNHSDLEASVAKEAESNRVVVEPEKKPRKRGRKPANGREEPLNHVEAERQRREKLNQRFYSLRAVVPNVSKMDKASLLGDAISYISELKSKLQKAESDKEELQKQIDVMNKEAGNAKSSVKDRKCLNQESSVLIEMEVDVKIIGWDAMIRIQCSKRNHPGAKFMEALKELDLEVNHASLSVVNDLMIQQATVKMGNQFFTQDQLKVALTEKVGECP

MBP-MYC3 [2] = biological target: T2, MBP-MYC3 (Arabidopsis thaliana (Col-0), UniProt Q9FIP9 1-592); test: as above; conditions: protein: recombinant; tags: MBP; chain copies: 2; label: 5'-biotin
T2 sequence (Q9FIP9 whole entry): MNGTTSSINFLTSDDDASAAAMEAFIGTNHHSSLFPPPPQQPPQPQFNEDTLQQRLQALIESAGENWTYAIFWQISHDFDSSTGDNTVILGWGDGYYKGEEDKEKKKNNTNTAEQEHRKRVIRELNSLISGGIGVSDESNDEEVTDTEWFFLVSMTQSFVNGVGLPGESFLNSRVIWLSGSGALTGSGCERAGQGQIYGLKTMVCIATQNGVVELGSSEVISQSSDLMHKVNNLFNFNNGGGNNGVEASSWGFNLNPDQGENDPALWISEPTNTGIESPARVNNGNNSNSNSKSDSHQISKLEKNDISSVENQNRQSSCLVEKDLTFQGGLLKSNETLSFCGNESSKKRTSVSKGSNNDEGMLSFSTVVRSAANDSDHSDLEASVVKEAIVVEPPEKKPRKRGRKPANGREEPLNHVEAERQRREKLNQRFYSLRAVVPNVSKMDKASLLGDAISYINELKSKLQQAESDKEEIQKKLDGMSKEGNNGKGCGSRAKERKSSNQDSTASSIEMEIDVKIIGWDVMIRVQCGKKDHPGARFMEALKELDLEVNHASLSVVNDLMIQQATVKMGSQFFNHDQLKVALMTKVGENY

MBP-MYC4 [3] = biological target: T1, MBP-MYC4; test: competition; competes with biotin probe A; EMSA kit (Thermo), room temperature, 20 min; binding buffer not stated (protein extraction buffer: 50 mM HEPES pH 7.5, 150 mM NaCl, 1 mM EGTA, 1% Triton X-100); conditions: protein: recombinant; tags: MBP; chain copies: 2
MBP-MYC3 [4] = biological target: T2, MBP-MYC3; test: as above; conditions: protein: recombinant; tags: MBP; chain copies: 2

Row | Binder | binding result (MBP-MYC4 [1]) | binding result (MBP-MYC3 [2]) | binding result (MBP-MYC4 [3]) | binding result (MBP-MYC3 [4])
1 | B1 | binds | binds |  | 
2 | B2 |  |  | binds | binds
3 | B3 | no binding | no binding |  | 
